Assay [1] deals with T1, E1 for neddylation, APPBP1/UBA3 heterodimer (UniProt Q13564 1-534; Q8TBC4 22-463).
T1 construct: GST-tagged or untagged preparations are mentioned; also called GST-APPBP1/UBA3; NAE; not shown: GST tag on APPBP1 (GST-APPBP1/UBA3)
T1 sequence (looked up) 1: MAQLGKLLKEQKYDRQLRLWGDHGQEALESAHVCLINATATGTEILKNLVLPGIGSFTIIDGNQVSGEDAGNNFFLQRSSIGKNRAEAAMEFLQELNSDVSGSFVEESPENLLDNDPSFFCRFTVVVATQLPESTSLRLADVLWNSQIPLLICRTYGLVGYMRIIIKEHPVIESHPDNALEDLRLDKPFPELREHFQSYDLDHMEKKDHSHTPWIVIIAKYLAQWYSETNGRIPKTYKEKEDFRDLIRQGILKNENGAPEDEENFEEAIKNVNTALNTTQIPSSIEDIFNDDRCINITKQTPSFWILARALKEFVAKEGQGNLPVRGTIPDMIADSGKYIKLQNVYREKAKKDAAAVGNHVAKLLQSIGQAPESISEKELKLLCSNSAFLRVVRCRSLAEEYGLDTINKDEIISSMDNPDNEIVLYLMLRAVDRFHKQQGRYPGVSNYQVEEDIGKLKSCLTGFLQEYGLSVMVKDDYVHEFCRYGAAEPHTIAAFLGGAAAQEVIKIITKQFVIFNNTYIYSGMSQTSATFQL
T1 sequence (looked up) 2: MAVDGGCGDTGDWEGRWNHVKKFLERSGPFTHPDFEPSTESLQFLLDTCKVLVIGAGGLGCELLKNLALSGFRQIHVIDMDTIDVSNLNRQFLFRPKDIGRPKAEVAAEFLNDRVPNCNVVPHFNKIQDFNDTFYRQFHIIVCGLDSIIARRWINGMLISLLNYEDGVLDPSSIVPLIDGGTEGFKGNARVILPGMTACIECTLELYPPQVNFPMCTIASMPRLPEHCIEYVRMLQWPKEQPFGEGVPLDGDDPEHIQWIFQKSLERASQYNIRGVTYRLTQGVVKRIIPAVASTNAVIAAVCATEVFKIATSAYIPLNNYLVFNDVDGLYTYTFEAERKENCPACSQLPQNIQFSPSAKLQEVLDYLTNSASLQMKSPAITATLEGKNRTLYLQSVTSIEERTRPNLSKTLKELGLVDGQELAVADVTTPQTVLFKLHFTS
Kind of assay: biolayer interferometry, E1 (APPBP1/UBA3) immobilized, analyte 62.5-500 nM.

The next assay has as its target T2, ubiquitin (UniProt P0CG48 1-76).
T2 construct: Bought protein
As to the kind of experiment: His-tag pull-down.

The next assay concerns the target T3, ABD (V541-E685) of GlyRS (human, UniProt P41250 595-739).
T3 construct: Cloned, expressed and purified in a similar way as the full-length GlyRS; also called ABD GlyRS; ABD domain alone
T3 sequence: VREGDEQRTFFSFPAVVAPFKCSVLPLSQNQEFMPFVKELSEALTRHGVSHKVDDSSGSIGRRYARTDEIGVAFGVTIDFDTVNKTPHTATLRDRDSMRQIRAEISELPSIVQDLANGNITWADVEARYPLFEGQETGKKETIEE
As to the kind of experiment: GST pull-down on glutathione beads, blot anti-GlyRS.

The target in assay [2] is T4, N-terminal GST-tagged GlyRS (human, UniProt P41250 55-739).
T4 construct: also called GST-GlyRS; immobilized GlyRS; not shown: N-terminal GST tag from a modified pET28a vector
T4 sequence: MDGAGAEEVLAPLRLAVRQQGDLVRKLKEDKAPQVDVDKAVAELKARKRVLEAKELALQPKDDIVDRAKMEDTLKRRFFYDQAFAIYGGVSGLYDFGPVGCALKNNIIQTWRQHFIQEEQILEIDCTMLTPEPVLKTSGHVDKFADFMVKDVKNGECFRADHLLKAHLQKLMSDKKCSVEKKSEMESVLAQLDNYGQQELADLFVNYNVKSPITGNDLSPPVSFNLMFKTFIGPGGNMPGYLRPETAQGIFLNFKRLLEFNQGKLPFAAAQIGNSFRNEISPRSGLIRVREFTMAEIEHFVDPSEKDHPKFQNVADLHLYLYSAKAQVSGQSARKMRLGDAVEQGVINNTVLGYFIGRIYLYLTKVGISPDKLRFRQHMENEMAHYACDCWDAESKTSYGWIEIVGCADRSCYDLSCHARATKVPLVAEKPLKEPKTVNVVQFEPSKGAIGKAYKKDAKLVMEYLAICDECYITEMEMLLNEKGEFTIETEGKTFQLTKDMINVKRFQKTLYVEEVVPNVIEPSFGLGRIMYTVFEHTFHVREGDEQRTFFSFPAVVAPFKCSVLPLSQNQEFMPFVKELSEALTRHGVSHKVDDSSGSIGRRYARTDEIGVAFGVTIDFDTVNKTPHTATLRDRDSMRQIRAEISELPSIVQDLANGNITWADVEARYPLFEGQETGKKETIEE
As to the kind of experiment: biolayer interferometry (Octet), GlyRS immobilized, 30°C. A general note: Biolayer interferometry detects binding as a change in optical thickness at a sensor tip.

B1: full-length human GlyRS (enzyme)
chain: MDGAGAEEVLAPLRLAVRQQGDLVRKLKEDKAPQVDVDKAVAELKARKRVLEAKELALQPKDDIVDRAKMEDTLKRRFFYDQAFAIYGGVSGLYDFGPVGCALKNNIIQTWRQHFIQEEQILEIDCTMLTPEPVLKTSGHVDKFADFMVKDVKNGECFRADHLLKAHLQKLMSDKKCSVEKKSEMESVLAQLDNYGQQELADLFVNYNVKSPITGNDLSPPVSFNLMFKTFIGPGGNMPGYLRPETAQGIFLNFKRLLEFNQGKLPFAAAQIGNSFRNEISPRSGLIRVREFTMAEIEHFVDPSEKDHPKFQNVADLHLYLYSAKAQVSGQSARKMRLGDAVEQGVINNTVLGYFIGRIYLYLTKVGISPDKLRFRQHMENEMAHYACDCWDAESKTSYGWIEIVGCADRSCYDLSCHARATKVPLVAEKPLKEPKTVNVVQFEPSKGAIGKAYKKDAKLVMEYLAICDECYITEMEMLLNEKGEFTIETEGKTFQLTKDMINVKRFQKTLYVEEVVPNVIEPSFGLGRIMYTVFEHTFHVREGDEQRTFFSFPAVVAPFKCSVLPLSQNQEFMPFVKELSEALTRHGVSHKVDDSSGSIGRRYARTDEIGVAFGVTIDFDTVNKTPHTATLRDRDSMRQIRAEISELPSIVQDLANGNITWADVEARYPLFEGQETGKKETIEE
notes: A tag-free preparation is described (N-terminal His-SUMO tag removed by Ulp1); the His-tagged preparation may have been used in some of those; also called full-length GlyRS; tag-free full-length GlyRS
Regarding B1, binding in assay [1] was characterised by a dissociation constant (Kd) of 159 nM. This lies in the sub-micromolar range.

B2: His-tagged full-length human GlyRS (glycyl-tRNA synthetase) (enzyme)
chain: MDGAGAEEVLAPLRLAVRQQGDLVRKLKEDKAPQVDVDKAVAELKARKRVLEAKELALQPKDDIVDRAKMEDTLKRRFFYDQAFAIYGGVSGLYDFGPVGCALKNNIIQTWRQHFIQEEQILEIDCTMLTPEPVLKTSGHVDKFADFMVKDVKNGECFRADHLLKAHLQKLMSDKKCSVEKKSEMESVLAQLDNYGQQELADLFVNYNVKSPITGNDLSPPVSFNLMFKTFIGPGGNMPGYLRPETAQGIFLNFKRLLEFNQGKLPFAAAQIGNSFRNEISPRSGLIRVREFTMAEIEHFVDPSEKDHPKFQNVADLHLYLYSAKAQVSGQSARKMRLGDAVEQGVINNTVLGYFIGRIYLYLTKVGISPDKLRFRQHMENEMAHYACDCWDAESKTSYGWIEIVGCADRSCYDLSCHARATKVPLVAEKPLKEPKTVNVVQFEPSKGAIGKAYKKDAKLVMEYLAICDECYITEMEMLLNEKGEFTIETEGKTFQLTKDMINVKRFQKTLYVEEVVPNVIEPSFGLGRIMYTVFEHTFHVREGDEQRTFFSFPAVVAPFKCSVLPLSQNQEFMPFVKELSEALTRHGVSHKVDDSSGSIGRRYARTDEIGVAFGVTIDFDTVNKTPHTATLRDRDSMRQIRAEISELPSIVQDLANGNITWADVEARYPLFEGQETGKKETIEE
notes: also called His-tagged GlyRS; purified human GlyRS protein; not shown: His tag
In the case of B2, the binding result with ubiquitin is reported as “no binding”.

B3: GST-Ubc12 (enzyme)
chain: MIKLFSLKQQKKEEESAGGTKGSSKKASAAQLRIQKDINELNLPKTCDISFSDPDDLLNFKLVICPDEGFYKSGKFVFSFKVGQGYPHDPPKVKCETMVYHPNIDLEGNVCLNILREDWKPVLTINSIIYGLQYLFLEPNPEDPLNKEAAEVLQNNRRLFEQNVQRSMRGGYIGSTYFERCLK
modifications: N-terminal GST fusion, not carried in the letters
notes: Bait on glutathione beads in the GST pull-down; Band between 42 and 57 kDa in the input blot; also called GST-tagged Ubc12; not shown: GST tag and the linker to Ubc12
As for B3, in the assay with ABD (V541-E685) of GlyRS, the binding result is “no binding”.

B4: Ubc12 (enzyme, UniProt P61081 1-183, looked up)
chain: MIKLFSLKQQKKEEESAGGTKGSSKKASAAQLRIQKDINELNLPKTCDISFSDPDDLLNFKLVICPDEGFYKSGKFVFSFKVGQGYPHDPPKVKCETMVYHPNIDLEGNVCLNILREDWKPVLTINSIIYGLQYLFLEPNPEDPLNKEAAEVLQNNRRLFEQNVQRSMRGGYIGSTYFERCLK
notes: GST-tagged or untagged preparations are mentioned; also called Ubc12 alone; apo Ubc12
In the case of B4, the affinity in assay [2], expressed as Kd, was 488 nM.

The values above are taken from patent US20190381086A1 (Scripps Research, published 2019).
